Experimental data reported in PMC3258144.

B1: Non-CG-Cy5 29-mer (dsDNA)
DNA 1: ACTTGCAACAGTCCTAACATTCACCTCTT
DNA 2: AAGAGGTGAATGTTAGGACTGTTGCAAGT
B2: 2CG-Cy5 29-mer (dsDNA)
DNA 1: ACTTGCAACGGTCCTAACCGTCACCTCTT
DNA 2: AAGAGGTGACGGTTAGGACCGTTGCAAGT

Target: Dnmt3a-C WT (mouse, UniProt O88508 608-908)
Test: fluorescence anisotropy

Dnmt3a-C WT, sequence (O88508 608-908): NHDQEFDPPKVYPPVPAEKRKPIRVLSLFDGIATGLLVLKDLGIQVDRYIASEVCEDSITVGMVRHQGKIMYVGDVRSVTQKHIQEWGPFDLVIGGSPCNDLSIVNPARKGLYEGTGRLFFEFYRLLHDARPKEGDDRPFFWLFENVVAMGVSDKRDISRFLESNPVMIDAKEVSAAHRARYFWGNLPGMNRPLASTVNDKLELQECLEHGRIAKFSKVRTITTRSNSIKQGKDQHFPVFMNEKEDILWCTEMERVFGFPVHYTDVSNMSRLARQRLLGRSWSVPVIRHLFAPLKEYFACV

Row | Binder | Kd
1 | B1 | 130 ± 12 nM
2 | B2 | 190 ± 10 nM
